Legend:
Conditions in all cases: both partners purified
[1] = target: T1, PARylated (activated) human PARP1 used in HDX-MS (human, UniProt P09874 1-1014, poly(ADP-ribose) (PARylated; sites not stated)); test: HDX-MS; ALC1^fl with and without PARylated or non-PARylated PARP1; 50 mM Tris, 50 mM NaCl, 5 mM MgCl2, 1.5 μM 239 bp dsDNA, 1 mM ATP, 1 mM TCEP pH 7.9, ~70% D2O, 23°C, five time points
T1 construct: human PARP1; also called PARylated PARP1

[2] = target: T2, ALC1^cat (ATPase motor of human ALC1, residues 16-612), 6xHis-tagged (human, UniProt Q86WJ1 16-612); test: SEC; 7 nmol each of ALC1^cat and ALC1^macro mixed, 10 min on ice, Superdex 200 10/300 GL, 20 mM MES pH 6.5, 300 mM NaCl, 10% glycerol, 0.5 mM TCEP; peak fractions on SDS-PAGE
T2 construct: human ALC1 (Amplified in liver cancer 1; CHD1L), residues 16-612; Made by PCR-based mutagenesis of the ALC1^fl construct (pNIC-CH2); also called ALC1/CHD1L variant that lacks the macro domain; source: E. coli Rosetta 2 (DE3), purified (HisTrap, Q HP, Superdex 200)
T2 sequence (looked up): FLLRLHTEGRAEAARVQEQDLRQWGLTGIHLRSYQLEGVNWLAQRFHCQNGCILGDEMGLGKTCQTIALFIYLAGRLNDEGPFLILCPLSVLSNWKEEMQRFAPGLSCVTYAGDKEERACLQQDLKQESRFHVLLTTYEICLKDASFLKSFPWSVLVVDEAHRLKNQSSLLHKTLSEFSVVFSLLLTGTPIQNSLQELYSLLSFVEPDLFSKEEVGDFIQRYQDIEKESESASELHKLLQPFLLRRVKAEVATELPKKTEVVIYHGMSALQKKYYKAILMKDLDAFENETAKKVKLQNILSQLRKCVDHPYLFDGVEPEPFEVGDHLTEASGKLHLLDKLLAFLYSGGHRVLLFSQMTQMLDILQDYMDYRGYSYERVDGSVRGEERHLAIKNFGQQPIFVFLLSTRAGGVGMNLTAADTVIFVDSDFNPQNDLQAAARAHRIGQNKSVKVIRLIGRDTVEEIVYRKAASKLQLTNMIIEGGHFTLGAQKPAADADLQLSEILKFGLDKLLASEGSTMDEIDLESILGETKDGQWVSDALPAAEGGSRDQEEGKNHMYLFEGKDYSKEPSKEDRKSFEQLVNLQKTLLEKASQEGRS

[3] = target: T3, PARylated GST-tagged human PARP1 (human, UniProt P09874 1-1014, poly(ADP-ribose) (PARylated by incubation with dsDNA and NAD+; sites not stated)); test: pull-down; 5 μM 6xHis-ALC1^cat and 5 μM ALC1^macroΔ6xHis, Ni-NTA agarose, 1 h at 4°C, 20 mM HEPES pH 7.5, 300 mM NaCl, 10% glycerol, 20 mM imidazole, 0.5 mM TCEP; where indicated 5 μM GST-PARP1 pre-incubated with dsDNA and NAD+; eluate on SDS-PAGE
T3 construct: human PARP1; also called PARylated PARP1; GST-tagged PARP1 (BPS Bioscience); source: bought: BPS Bioscience; incubated with 230 bp dsDNA and NAD+ for 5 min at 37°C

[4] = target: T2, ALC1^cat (ATPase motor of human ALC1, …); test: as above

T3 sequence (P09874 whole entry): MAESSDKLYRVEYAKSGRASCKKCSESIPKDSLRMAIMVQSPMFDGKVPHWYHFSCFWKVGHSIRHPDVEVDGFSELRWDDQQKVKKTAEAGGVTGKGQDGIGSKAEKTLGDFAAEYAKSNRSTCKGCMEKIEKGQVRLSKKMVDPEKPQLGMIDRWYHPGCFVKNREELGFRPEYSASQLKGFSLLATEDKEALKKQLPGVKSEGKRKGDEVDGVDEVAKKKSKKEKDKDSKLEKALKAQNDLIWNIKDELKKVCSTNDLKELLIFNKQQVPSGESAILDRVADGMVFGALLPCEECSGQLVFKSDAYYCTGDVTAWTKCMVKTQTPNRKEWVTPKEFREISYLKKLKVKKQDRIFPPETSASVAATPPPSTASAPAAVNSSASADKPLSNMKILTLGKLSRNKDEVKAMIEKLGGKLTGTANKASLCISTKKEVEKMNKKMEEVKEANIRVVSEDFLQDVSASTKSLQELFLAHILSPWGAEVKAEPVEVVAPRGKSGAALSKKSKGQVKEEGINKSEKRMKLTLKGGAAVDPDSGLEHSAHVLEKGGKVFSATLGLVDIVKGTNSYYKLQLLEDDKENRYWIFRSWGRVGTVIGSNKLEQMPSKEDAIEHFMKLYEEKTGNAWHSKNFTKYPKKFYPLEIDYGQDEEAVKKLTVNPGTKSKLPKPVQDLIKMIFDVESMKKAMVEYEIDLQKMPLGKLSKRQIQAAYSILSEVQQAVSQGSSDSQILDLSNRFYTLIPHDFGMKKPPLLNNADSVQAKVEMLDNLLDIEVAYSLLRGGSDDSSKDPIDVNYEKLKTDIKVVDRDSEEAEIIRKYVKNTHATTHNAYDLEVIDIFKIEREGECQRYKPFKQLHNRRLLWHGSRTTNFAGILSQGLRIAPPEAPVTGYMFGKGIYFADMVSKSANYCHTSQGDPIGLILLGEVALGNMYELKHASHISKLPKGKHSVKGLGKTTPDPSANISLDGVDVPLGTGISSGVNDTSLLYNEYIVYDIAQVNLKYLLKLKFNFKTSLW
T1 sequence (P09874 whole entry): as above

B1: ALC1^fl (essentially full-length human ALC1, residues 16-879), 6xHis-tagged (enzyme, UniProt Q86WJ1 16-879, looked up)
chain: FLLRLHTEGRAEAARVQEQDLRQWGLTGIHLRSYQLEGVNWLAQRFHCQNGCILGDEMGLGKTCQTIALFIYLAGRLNDEGPFLILCPLSVLSNWKEEMQRFAPGLSCVTYAGDKEERACLQQDLKQESRFHVLLTTYEICLKDASFLKSFPWSVLVVDEAHRLKNQSSLLHKTLSEFSVVFSLLLTGTPIQNSLQELYSLLSFVEPDLFSKEEVGDFIQRYQDIEKESESASELHKLLQPFLLRRVKAEVATELPKKTEVVIYHGMSALQKKYYKAILMKDLDAFENETAKKVKLQNILSQLRKCVDHPYLFDGVEPEPFEVGDHLTEASGKLHLLDKLLAFLYSGGHRVLLFSQMTQMLDILQDYMDYRGYSYERVDGSVRGEERHLAIKNFGQQPIFVFLLSTRAGGVGMNLTAADTVIFVDSDFNPQNDLQAAARAHRIGQNKSVKVIRLIGRDTVEEIVYRKAASKLQLTNMIIEGGHFTLGAQKPAADADLQLSEILKFGLDKLLASEGSTMDEIDLESILGETKDGQWVSDALPAAEGGSRDQEEGKNHMYLFEGKDYSKEPSKEDRKSFEQLVNLQKTLLEKASQEGRSLRNKGSVLIPGLVEGSTKRKRVLSPEELEDRQKKRQEAAAKRRRLIEEKKRQKEEAEHKKKMAWWESNNYQSFCLPSEESEPEDLENGEESSAELDYQDPDATSLKYVSGDVTHPQAGAEDALIVHCVDDSGHWGRGGLFTALEKRSAEPRKIYELAGKMKDLSLGGVLLFPVDDKESRNKGQDLLALIVAQHRDRSNVLSGIKMAALEEGLKKIFLAAKKKKASVHLPRIGHATKGFNWYGTERLIRKHLAARGIPTYIYYFPRSK
notes: human ALC1 (CHD1L), residues 16-879; also called Human ALC1^fl (16-879) pNIC-CH2; source: E. coli Rosetta 2 (DE3), purified (HisTrap, Q HP/SP HP, Superdex 200)
B1: binds [1].

B2: ALC1^macro (macro domain construct of human ALC1, residues 613-879), 6xHis-tagged (domain or fragment, UniProt Q86WJ1 613-879, looked up)
chain: LRNKGSVLIPGLVEGSTKRKRVLSPEELEDRQKKRQEAAAKRRRLIEEKKRQKEEAEHKKKMAWWESNNYQSFCLPSEESEPEDLENGEESSAELDYQDPDATSLKYVSGDVTHPQAGAEDALIVHCVDDSGHWGRGGLFTALEKRSAEPRKIYELAGKMKDLSLGGVLLFPVDDKESRNKGQDLLALIVAQHRDRSNVLSGIKMAALEEGLKKIFLAAKKKKASVHLPRIGHATKGFNWYGTERLIRKHLAARGIPTYIYYFPRSK
notes: human ALC1 (CHD1L), residues 613-879 (linker and macro domain); Made from the ALC1^fl construct (pNIC-CH2); no cleavage of the tag is described for this version; source: E. coli Rosetta 2 (DE3), purified (HisTrap, Q HP/SP HP, Superdex 200)
B2: binds [2].

B3: ALC1^macroΔ6xHis (macro domain construct of human ALC1, residues 613-879, 6xHis tag removed by TEV) (domain or fragment, UniProt Q86WJ1 613-879, looked up)
chain: LRNKGSVLIPGLVEGSTKRKRVLSPEELEDRQKKRQEAAAKRRRLIEEKKRQKEEAEHKKKMAWWESNNYQSFCLPSEESEPEDLENGEESSAELDYQDPDATSLKYVSGDVTHPQAGAEDALIVHCVDDSGHWGRGGLFTALEKRSAEPRKIYELAGKMKDLSLGGVLLFPVDDKESRNKGQDLLALIVAQHRDRSNVLSGIKMAALEEGLKKIFLAAKKKKASVHLPRIGHATKGFNWYGTERLIRKHLAARGIPTYIYYFPRSK
notes: human ALC1 (CHD1L), residues 613-879; A TEV-cleavage site was added to the ALC1^macro construct; also called ALC1^macro6xΔHis; non-tagged macro domain; source: E. coli Rosetta 2 (DE3), purified; TEV cleavage of the 6xHis tag, second HisTrap flow-through
B3: binds [3]; binds [4].

— publication PMC5745148, “Mechanistic Insights into Autoinhibition of the Oncogenic Chromatin Remodeler ALC1” (Molecular Cell, 2017)
